Consider 30 sequences from the nanobody polyreactivity screen of Harvey et al. (2022).

The data set is described as follows: yeast display, Sf9 membrane polyspecificity reagent, FACS + sequencing; frameworks hold sequencing errors. In a few lines: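 Galactose-induced (36–48 hours) yeast carrying a synthetic nanobody display library were exposed to 10% biotinylated, detergent-solubilized Sf9 membrane reagent at 4 °C for 1 hour. FACS followed streptavidin microbead enrichment, using low and high (top ~1%) gates for expression (anti-HA) and reagent binding (streptavidin). Colony PCR, MiSeq 2 × 250 sequencing and CDR-length filtering followed. Labels for polyreactivity reflect the gate of origin.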
Consider “QVQLVESGGGLVQAGGSLRLSCAASGRTFRGNAMGWYRQAPGKERELVAAISRSGGTTYYADSVKGRFTISRDNAKNTVYLQMNSLKPEDTAVYYCNRGWATWHGPDDYWGQGTQVTVSS”, for which the “polyreactivity (PSR sort gate)” value is reported as “high polyreactivity”.

Regarding “QVQLVESGGGLVQAGGSLRLSCAASGRTFRGYALGWYRQAPGKERELVAAISGGTTNYADSVKGRFTISRDNAKNTVYLQMNSLKPVDTAVYYCAAAQRQYWRYRLGYEYGSWGQGTQVTVSS”, the “polyreactivity (PSR sort gate)” value is reported as “low polyreactivity”.

With “QVQLVESGGGLVQAGGSLRLSCAASGRTFRGYAMGWYRQAPGKERELVAAITSGGSTNYADSVKGRFTISRDNAKNTVYLQMNSLKPEDTAVYYCNRDTSKYGLWRYIYDYWGQGTQVTVSS”, the “polyreactivity (PSR sort gate)” value is listed as “low polyreactivity”.

Regarding “QVQLVESGGGLVQAGGSLRLSCAASGRTFRHNAMGWYRQAPGKERELVATINRGGNTYYADSVKGRFTISRDNAKNTVYLQMNSLKPEDTAVYYCAARRSFLFDEGNYWGQGTQVTVSS”, the “polyreactivity (PSR sort gate)” value is given as “low polyreactivity”.

With “QVQLVESGGGLVQAGGSLRLSCAASGRTFRIYATGWYRQAPGKERELVAAITRGGSTYYADSVKGRFTISRDNAKNTVYLQMNSLKPEDTAVYYCNAAPYYWGYDYWGQGTQVTVSS”, the “polyreactivity (PSR sort gate)” value is listed as “high polyreactivity”.

Regarding “QVQLVESGGGLVQAGGSLRLSCAASGRTFRKNVMGWYRQAPGKEREFVASISSSGSSTYYADSVKGRFTISRDYAKNTVYLQMNSLKPEDTAVYYCAARSVYATKRKYDYWGQGTQVTVSS”, the “polyreactivity (PSR sort gate)” value is “high polyreactivity”.

In the case of “QVQLVESGGGLVQAGGSLRLSCAASGRTFRKYAMGWYRPAPGKERELVAAISWSGGSTRYADYVKGRFTISRDNEKNTVYLQMNSLKPEDTAVYYCNAVRRYRSTHPSYHTFNYWGQGTQVTVSS”, the “polyreactivity (PSR sort gate)” value is “high polyreactivity”.

Consider “QVQLVESGGGLVQAGGSLRLSCAASGRTFRLNAMGWYRQAPGKERELVAGIRVRAGTTYYADSVKGRFTLSRDNAKNTVYLQMNSLKPEDTAVYYCAAESYSRSRKYDYWGQGTQVTVSS”, for which the “polyreactivity (PSR sort gate)” value was “high polyreactivity”.

For the sequence “QVQLVESGGGLVQAGGSLRLSCAASGRTFRLYAMGWSRQAPGKERELVAAITRGGRTNYADSVKGRFTISRDNAKTTVYLQMTSLKPEDTAVYYCAARYVERHTDYYYWGQGTQVTVSS”, the “polyreactivity (PSR sort gate)” value is listed as “low polyreactivity”.

Turning to “QVQLVESGGGLVQAGGSLRLSCAASGRTFRLYAMGWYRQAPGKERELVAAISGSGGSTYYADSVKGRFTISRDNAKNTVYLQMNSLKPEDTAVYYCATAVHTAILNYWGQGTQVTVSS”, the “polyreactivity (PSR sort gate)” value is “low polyreactivity”.

On to “QVQLVESGGGLVQAGGSLRLSCAASGRTFRNYAMGWYRPAPGKERELDAGITDSGGSTFYADSVKGRFTISRDNAKNTVYLQMNSLKPADTAVYYCAAVYVPYYWLGRSRGLDYWGQGTQVTVSS”, for which the “polyreactivity (PSR sort gate)” value is “high polyreactivity”.

As for “QVQLVESGGGLVQAGGSLRLSCAASGRTFRNYAMGWYRQAPGKERELVAAINSGGSTNYADSVKGRFTISRDNAKNTVYLQMNSLKPEDTAVYYCAKRRTYPGKGRFNYWGQGTQVTVSS”, the “polyreactivity (PSR sort gate)” value is “low polyreactivity”.

As for “QVQLVESGGGLVQAGGSLRLSCAASGRTFRPNAMRWYRQAPGKERELVASITRRGGTTYYADSVKGRFTISRDNAKNTVYLQMNSLKPEDTAVYYCNAPPGYSSTRNGYWGQGTQVTVSS”, the “polyreactivity (PSR sort gate)” value is recorded as “high polyreactivity”.

As to “QVQLVESGGGLVQAGGSLRLSCAASGRTFRPYAMGWYRQAPGKERELVAAIRGSTGSTYADSVKGRFTISRDNAKNTVYLQMNSLKPEDTAVYSCATYRYYSGLGGGYWGQGTQVTVSS”, the “polyreactivity (PSR sort gate)” value is recorded as “high polyreactivity”.

For “QVQLVESGGGLVQAGGSLRLSCAASGRTFRPYAMGWYRQAPGKERELVAAISYRGGITNYADSVKGRFTISRDNAKNTVYLQMNSLKPEDTAVYYCNRYAIWVSRYSDLDYWGQGTQVTVSS”, the “polyreactivity (PSR sort gate)” value is on record as “low polyreactivity”.

Take “QVQLVESGGGLVQAGGSLRLSCAASGRTFRQYAMGWYRQAPGKERELVAAIRTNGGRTYYADSVKGRFTISRDNAKNTVYLQMNSLKPEDTAVYYCAVYAVVQGVLFDYWGQGTQVTVSS”: the “polyreactivity (PSR sort gate)” value is given as “high polyreactivity”.

With “QVQLVESGGGLVQAGGSLRLSCAASGRTFRQYAMGWYRQAPGKERELVARIRWRGGTTYYADSVKGRFTISRDNAKNTVYLQMISLKPEDTAVYYCAADKYGTEYDYWGQGTQVTVSS”, the “polyreactivity (PSR sort gate)” value is recorded as “high polyreactivity”.

For “QVQLVESGGGLVQAGGSLRLSCAASGRTFRRYAIGWYRQAPGKERELVATISSGGSTNYADSVKGRFTISRDNAKNTVYLQMNSLKPEDTAVYYCATPQTRTYDYWGQGTQGTVSS”, the “polyreactivity (PSR sort gate)” value is listed as “high polyreactivity”.

As for “QVQLVESGGGLVQAGGSLRLSCAASGRTFRRYAMGWYRQAPGKERELVAAISRGANTNYADSVKGRFTISRDNAKNTVYLQMNSLKPEDTAVYYCNAKQAGYYFAFGYWGQGTQVTVSS”, the “polyreactivity (PSR sort gate)” value is “high polyreactivity”.

With “QVQLVESGGGLVQAGGSLRLSCAASGRTFRRYAMGWYRQAPGKERELVAAITRGTRTNYADSVKGRFTISRDNAKNTVYLQMNSLKPEDTAVYYCNARRFLYSGGAYQFYYWGQGTQVTVSS”, the “polyreactivity (PSR sort gate)” value was “low polyreactivity”.

“QVQLVESGGGLVQAGGSLRLSCAASGRTFRRYAMGWYRQAPGKERELVAAITSGGSTNYADSVKGRFTISRDNAKNNVYLQMNSLKPEDTAVYYCNARYFRGYDYWGQGTQVTVSS”: the “polyreactivity (PSR sort gate)” value was “high polyreactivity”.

“QVQLVESGGGLVQAGGSLRLSCAASGRTFRRYAMGWYRQAPGKERELVAASSRGANTNYADSVKGRFTISRDNAKNTVYLQMNSLKPEDTSVYYGNAYGIDTGDYWGQGTKVTVSS”: the “polyreactivity (PSR sort gate)” value is on record as “high polyreactivity”.

As for “QVQLVESGGGLVQAGGSLRLSCAASGRTFRRYTMGWYRQAPGKERELVATISWSGGTTYADSVKGRFTISRDNAKNTVYLQMNSLKPEDTAVYFCAAVSYVYRYYWGQGTQVTVSS”, the “polyreactivity (PSR sort gate)” value is “low polyreactivity”.

For the sequence “QVQLVESGGGLVQAGGSLRLSCAASGRTFRRYVMGWDRQSPGKERQLVAAIRWTGGSTYYADSVKGRFTISRDNAKNTVYLKMNSLKPEDTEVYYCAAYIRWSGGFDYWGQGTQVTVSS”, the “polyreactivity (PSR sort gate)” value is “high polyreactivity”.

On to “QVQLVESGGGLVQAGGSLRLSCAASGRTFRSNAMGGTTQAPGKERQLVAGITKSGGNTYYADSVKGRFTISRDNAKNTVYLQMTSLKPEDTAVYYCATRYYPLVNYLGYDYWGQGTQVTVSW”, for which the “polyreactivity (PSR sort gate)” value is recorded as “low polyreactivity”.

Regarding “QVQLVESGGGLVQAGGSLRLSCAASGRTFRSNAMGWNIQAPGKERELVAAITRGRRTYYADSVKGRFTISRDNAKNTVYLQMNSMKPEDTAVYYCAGVGRYACRLDYWGQGTQVTVSS”, the “polyreactivity (PSR sort gate)” value is listed as “high polyreactivity”.

With “QVQLVESGGGLVQAGGSLRLSCAASGRTFRSNAMGWYRQAPGKERELVAAIRNSDGSTNYADSVKGRFTISRDNAKNNVYLQMNSLKPEDTAVYYCAASSTVGGITRILYYYWGQGTQVTVSS”, the “polyreactivity (PSR sort gate)” value is “high polyreactivity”.

Turning to “QVQLVESGGGLVQAGGSLRLSCAASGRTFRSNAMGWYRQAPGKERELVATISRRGVSTYYADSVKGRFTISRDNAKNTVYLQMNSLKPEDTAVYYCTLNVGTTSRWSYDYWGQGTQVTVSS”, the “polyreactivity (PSR sort gate)” value is “high polyreactivity”.

Regarding “QVQLVESGGGLVQAGGSLRLSCAASGRTFRSYAMGWYRQAPGKERELVAAIRGGGGRTHYADSVKGRFTISRDNAKNTVYLQMNSLKPEDTAVYYCAAGRPYLESKLYDYWGQGTHVTVSS”, the “polyreactivity (PSR sort gate)” value is listed as “high polyreactivity”.

Regarding “QVQLVESGGGLVQAGGSLRLSCAASGRTFRSYAMGWYRQAPGKERELVAAISQRGGSTYYADSVKGRFTISRDNAKNTVYLQMNSLKPEDTAVYYCATPVRSGYDYWGQGTQVTVSS”, the “polyreactivity (PSR sort gate)” value was “high polyreactivity”.
